B1: full length pk7: full length pk7 (MKP2), unstable domain amino acids 1-394 (protein, UniProt Q13115 1-394, looked up)
chain: MVTMEELREMDCSVLKRLMNRDENGGGAGGSGSHGTLGLPSGGKCLLLDCRPFLAHSAGYILGSVNVRCNTIVRRRAKGSVSLEQILPAEEEVRARLRSGLYSAVIVYDERSPRAESLREDSTVSLVVQALRRNAERTDICLLKGGYERFSSEYPEFCSKTKALAAIPPPVPPSATEPLDLGCSSCGTPLHDQGGPVEILPFLYLGSAYHAARRDMLDALGITALLNVSSDCPNHFEGHYQYKCIPVEDNHKADISSWFMEAIEYIDAVKDCRGRVLVHCQAGISRSATICLAYLMMKKRVRLEEAFEFVKQRRSIISPNFSFMGQLLQFESQVLATSCAAEAASPSGPLRERGKTPATPTSQFVFSFPVSVGVHSAPSSLPYLHSPITTSPSC
modifications: full-length
B2: T38: recombinant PTP active domain; unstable domain 636-979, stable domain 709-979, SEQ. ID. NO: 120 (protein)
chain: LAKEWQALCAYQAEPNTCATAQGEGNIKKNRHPDFLPYDHARIKLKVESSPSRSDYINASPIIEHDPRMPAYIATQGPLSHTIADFWQMVWESGCTVIVMLTPLVEDGVKQCDRYWPDEGASLYHVYEVNLVSEHIWCEDFLVRSFYLKNVQTQETRTLTQFHFLSWPAEGTPASTRPLLDFRRKVNKCYRGRSCPIIVHCSDGAGRTGTYILIDMVLNRMAKGVKEIDIAATLEHVRDQRPGLVRSKDQFEFALTAVAEEVNAILKALP
modifications: Amino acid sequence of PTP active domain T38
B3: re-designed pk7: re-designed stable PTP active domain of pk7 (MKP2), amino acids 174-338, SEQ. ID. NO: 136 (protein)
chain: SATEPLDLGCSSCGTPLHDQGGPVEILPFLYLGSAYHAARRDMLDALGITALLNVSSDCPNHFEGHYQYKCIPVEDNHKADISSWFMEAIEYIDAVKDCRGRVLVHCQAGISRSATICLAYLMMKKRVRLEEAFEFVKQRRSIISPNFSFMGQLLQFESQVLATS
modifications: Amino acid sequence of PTP active domain pk7

What was measured:
[1] = Solubility and stability of expressed domain by SDS-PAGE of supernatant and precipitate; type: physicochemical; settings: expressed in E. coli, SDS-PAGE (FIG. 9)
Experimental: After cloning the PTP active domain determined in Example <1-2>, it was expressed in E. coli and purified therefrom. After storing for a while, a proper amount of protein solution was ultra-centrifuged to separate supernatant and precipitate. SDS-PAGE was performed with the precipitate by the same manner as described in Example 3 to investigate whether the precipitate contained the target protein, leading to the examination of solubility.
The protein band cut by protease obtained in Example <1-3-2> was transferred to PVDF membrane. The band was cut and treated with a reagent recognizing and digesting N-terminal, followed by HPLC stepwise to arrange amino acids. Mass spectrometry was performed with the band to calculate the mass exactly and select stable domains. The re-designed domains were tested for activity and stability by the same manner as described in Example 4.

[2] = Protease (trypsin or chymotrypsin) digestion of PTP active domain, SDS-PAGE; type: physicochemical; settings: 37° C., 30 minutes, SDS-PAGE (FIG. 8)
Experimental: Based on the result of Example <1-3-1>, 20 μg of PTP active domain having low solubility and stability was serially diluted from 1:1 to 1:1,000, followed by reaction with trypsin (Sigma, USA) or chymotrypsin (Sigma, USA) at 37° C. for 30 minutes. SDS-PAGE was performed by the same manner as described in Example 3 to confirm digestion.

Molecule | solubility [1] | stability [1] | stability with increase of protease concentration [2]
B1 | low | low | 
B2 |  |  | maintained
B3 | high | high | 
